Measured values as given in paper PMC6513997.

Molecular target: native PRC2 purified from HeLa cells expressing FLAG-tagged EZH2 (not stated | human (endogenous in HeLa)) (UniProt Q15910)
Sequence (Q15910 whole entry, chain 1 of 4): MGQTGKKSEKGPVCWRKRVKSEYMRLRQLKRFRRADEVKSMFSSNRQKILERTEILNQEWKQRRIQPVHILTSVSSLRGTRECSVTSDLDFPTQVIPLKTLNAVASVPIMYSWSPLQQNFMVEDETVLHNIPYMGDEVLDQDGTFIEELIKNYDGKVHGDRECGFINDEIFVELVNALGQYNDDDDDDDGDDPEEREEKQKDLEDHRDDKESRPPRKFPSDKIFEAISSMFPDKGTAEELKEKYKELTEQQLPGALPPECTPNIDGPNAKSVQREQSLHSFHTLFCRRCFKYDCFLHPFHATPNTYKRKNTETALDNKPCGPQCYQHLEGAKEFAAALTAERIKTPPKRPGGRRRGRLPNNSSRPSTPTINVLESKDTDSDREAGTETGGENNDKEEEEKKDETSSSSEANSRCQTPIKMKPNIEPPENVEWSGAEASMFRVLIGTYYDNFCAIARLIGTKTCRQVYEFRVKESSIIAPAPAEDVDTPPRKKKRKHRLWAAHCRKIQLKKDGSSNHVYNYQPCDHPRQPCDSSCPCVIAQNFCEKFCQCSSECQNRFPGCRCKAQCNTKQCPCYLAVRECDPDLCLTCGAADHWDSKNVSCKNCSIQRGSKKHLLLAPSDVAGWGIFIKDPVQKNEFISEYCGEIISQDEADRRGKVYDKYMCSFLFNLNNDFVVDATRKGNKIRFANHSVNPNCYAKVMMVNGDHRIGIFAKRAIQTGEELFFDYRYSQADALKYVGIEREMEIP
Sequence (Q15022 whole entry, chain 2 of 4, further chain): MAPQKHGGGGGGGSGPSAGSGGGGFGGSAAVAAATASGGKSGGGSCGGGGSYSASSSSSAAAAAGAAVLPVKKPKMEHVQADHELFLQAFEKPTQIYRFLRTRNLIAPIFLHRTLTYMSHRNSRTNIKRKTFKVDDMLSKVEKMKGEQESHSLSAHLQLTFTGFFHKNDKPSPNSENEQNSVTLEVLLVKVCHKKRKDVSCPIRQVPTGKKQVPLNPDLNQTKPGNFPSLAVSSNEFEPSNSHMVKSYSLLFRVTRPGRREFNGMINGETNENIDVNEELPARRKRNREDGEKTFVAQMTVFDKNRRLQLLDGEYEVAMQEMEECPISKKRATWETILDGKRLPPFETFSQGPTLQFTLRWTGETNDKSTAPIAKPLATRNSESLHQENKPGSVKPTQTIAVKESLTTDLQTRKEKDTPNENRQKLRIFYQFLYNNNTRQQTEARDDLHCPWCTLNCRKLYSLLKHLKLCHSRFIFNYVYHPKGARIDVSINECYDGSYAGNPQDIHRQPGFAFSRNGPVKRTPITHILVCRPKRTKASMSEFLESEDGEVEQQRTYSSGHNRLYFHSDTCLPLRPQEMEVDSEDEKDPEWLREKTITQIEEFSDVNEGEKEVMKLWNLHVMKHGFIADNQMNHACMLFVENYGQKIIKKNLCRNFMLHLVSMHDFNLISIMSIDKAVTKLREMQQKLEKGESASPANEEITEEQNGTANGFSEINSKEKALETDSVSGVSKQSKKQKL
Sequence (O75530 2-441, chain 3 of 4, further chain): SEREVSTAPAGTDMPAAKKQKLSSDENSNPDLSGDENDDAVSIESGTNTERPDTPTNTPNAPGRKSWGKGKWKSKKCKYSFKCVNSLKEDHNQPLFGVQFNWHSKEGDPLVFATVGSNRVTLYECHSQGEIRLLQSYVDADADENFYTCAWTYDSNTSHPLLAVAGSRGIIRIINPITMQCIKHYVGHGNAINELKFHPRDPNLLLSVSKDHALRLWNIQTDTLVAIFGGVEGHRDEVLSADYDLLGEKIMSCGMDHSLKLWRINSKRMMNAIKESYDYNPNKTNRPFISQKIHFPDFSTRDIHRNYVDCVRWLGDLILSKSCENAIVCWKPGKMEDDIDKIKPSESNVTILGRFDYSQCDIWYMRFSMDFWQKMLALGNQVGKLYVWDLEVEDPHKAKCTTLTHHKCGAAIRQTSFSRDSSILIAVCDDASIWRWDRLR
Sequence (Q09028 2-425, chain 4 of 4, further chain): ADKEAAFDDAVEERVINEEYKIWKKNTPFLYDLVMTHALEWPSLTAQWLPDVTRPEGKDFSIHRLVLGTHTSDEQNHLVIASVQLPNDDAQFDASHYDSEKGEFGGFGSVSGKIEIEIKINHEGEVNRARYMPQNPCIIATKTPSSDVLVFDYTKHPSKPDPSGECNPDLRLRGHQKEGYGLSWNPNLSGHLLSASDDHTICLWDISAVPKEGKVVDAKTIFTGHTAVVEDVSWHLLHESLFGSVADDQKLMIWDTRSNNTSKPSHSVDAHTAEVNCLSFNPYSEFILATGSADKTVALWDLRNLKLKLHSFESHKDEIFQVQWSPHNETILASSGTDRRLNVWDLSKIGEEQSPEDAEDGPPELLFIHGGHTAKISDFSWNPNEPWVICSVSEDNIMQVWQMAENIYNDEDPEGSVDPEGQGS

Chain of full length recombinant EZHIP WT, 6x-His-tagged (natural protein) (Q86X51 whole entry): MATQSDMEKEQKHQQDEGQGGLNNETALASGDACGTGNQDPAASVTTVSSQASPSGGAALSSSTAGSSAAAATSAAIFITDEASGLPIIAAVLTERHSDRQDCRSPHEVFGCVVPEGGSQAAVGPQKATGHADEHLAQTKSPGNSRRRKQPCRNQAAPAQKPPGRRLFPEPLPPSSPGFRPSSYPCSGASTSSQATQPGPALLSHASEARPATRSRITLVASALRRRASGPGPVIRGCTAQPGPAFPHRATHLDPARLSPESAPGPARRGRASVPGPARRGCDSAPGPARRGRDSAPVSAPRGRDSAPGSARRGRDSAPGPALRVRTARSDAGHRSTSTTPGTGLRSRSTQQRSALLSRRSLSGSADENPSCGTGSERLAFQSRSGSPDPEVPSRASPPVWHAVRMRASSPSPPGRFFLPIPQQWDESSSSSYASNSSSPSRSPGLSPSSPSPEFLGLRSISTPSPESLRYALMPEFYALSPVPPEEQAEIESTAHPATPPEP

Substance: full length recombinant EZHIP WT, 6x-His-tagged (natural protein)
- IC50 of PRC2-catalyzed methylation of oligonucleosomes, in vitro methyltransferase assay, EZHIP titrated: 50 nM
